{"source": "patent US20250218531A1", "about": "(ABSCI, published 2025)", "binders": {"B1": {"name": "Trastuzumab HCDR3 variant ARSYFRFTGDFFY (Fab, V domains shown)", "VH": "EVQLVESGGGLVQPGGSLRLSCAASGFNIKDTYIHWVRQAPGKGLEWVARIYPTNGYTRYADSVKGRFTISADTSKNTAYLQMNSLRAEDTAVYYCARSYFRFTGDFFYWGQGTLVTVSS", "VL": "not shown"}, "B2": {"name": "Trastuzumab HCDR3 variant ARYGGLSYYSFDL (Fab, V domains shown)", "VH": "B1 VH with S99Y, Y100G, F101G, R102L, F103S, T104Y, G105Y, D106S, F108D, Y109L", "VL": "not shown"}, "B3": {"name": "Trastuzumab HCDR3 variant ARWARGAGYYWDY (Fab, V domains shown)", "VH": "B1 VH with S99W, Y100A, F101R, R102G, F103A, T104G, G105Y, D106Y, F107W, F108D", "VL": "not shown"}, "B4": {"name": "Trastuzumab HCDR3 variant ARSYAYLYGSWDY (Fab, V domains shown)", "VH": "B1 VH with F101A, R102Y, F103L, T104Y, D106S, F107W, F108D", "VL": "not shown"}, "B5": {"name": "Trastuzumab HCDR3 variant ARYGLYGSYYFRY (Fab, V domains shown)", "VH": "B1 VH with S99Y, Y100G, F101L, R102Y, F103G, T104S, G105Y, D106Y, F108R", "VL": "not shown"}, "B6": {"name": "Trastuzumab HCDR3 variant ARWEGYGSYEFAY (Fab, V domains shown)", "VH": "B1 VH with S99W, Y100E, F101G, R102Y, F103G, T104S, G105Y, D106E, F108A", "VL": "not shown"}, "B7": {"name": "Trastuzumab HCDR3 variant ARTTSSIPSSFDY (Fab, V domains shown)", "VH": "B1 VH with S99T, Y100T, F101S, R102S, F103I, T104P, G105S, D106S, F108D", "VL": "not shown"}, "B8": {"name": "Trastuzumab HCDR3 variant ARWERYGYYVLDV (Fab, V domains shown)", "VH": "EVQLVESGGGLVQPGGSLRLSCAASGFNIKDTYIHWVRQAPGKGLEWVARIYPTNGYTRYADSVKGRFTISADTSKNTAYLQMNSLRAEDTAVYYCARWERYGYYVLDVWGQGTLVTVSS", "VL": "not shown"}, "B9": {"name": "Trastuzumab HCDR3 variant ARYGDAFIMSFGV (Fab, V domains shown)", "VH": "B1 VH with S99Y, Y100G, F101D, R102A, T104I, G105M, D106S, F108G, Y109V", "VL": "not shown"}, "B10": {"name": "Trastuzumab HCDR3 variant ARYNPFDGFYFDV (Fab, V domains shown)", "VH": "B8 VH with W99Y, E100N, R101P, Y102F, G103D, Y104G, Y105F, V106Y, L107F", "VL": "not shown"}, "B11": {"name": "Trastuzumab HCDR3 variant ARYPNYGFYMFDY (Fab, V domains shown)", "VH": "B8 VH with W99Y, E100P, R101N, Y104F, V106M, L107F, V109Y", "VL": "not shown"}, "B12": {"name": "Trastuzumab HCDR3 variant ARYYSDYSYTFSY (Fab, V domains shown)", "VH": "B1 VH with S99Y, F101S, R102D, F103Y, T104S, G105Y, D106T, F108S", "VL": "not shown"}, "B13": {"name": "Trastuzumab HCDR3 variant ARTVVGWYGRFDY (Fab, V domains shown)", "VH": "B1 VH with S99T, Y100V, F101V, R102G, F103W, T104Y, D106R, F108D", "VL": "not shown"}, "B14": {"name": "Trastuzumab HCDR3 variant ARYGLNHYYVYPY (Fab, V domains shown)", "VH": "B8 VH with W99Y, E100G, R101L, Y102N, G103H, L107Y, D108P, V109Y", "VL": "not shown"}, "B15": {"name": "Trastuzumab HCDR3 variant ARYGYDYYYYFDV (Fab, V domains shown)", "VH": "B8 VH with W99Y, E100G, R101Y, Y102D, G103Y, V106Y, L107F", "VL": "not shown"}, "B16": {"name": "Trastuzumab HCDR3 variant ARWGYGYYYSFDY (Fab, V domains shown)", "VH": "B8 VH with E100G, R101Y, Y102G, G103Y, V106S, L107F, V109Y", "VL": "not shown"}, "B17": {"name": "Trastuzumab HCDR3 variant ARYGYGAYYYFDY (Fab, V domains shown)", "VH": "B8 VH with W99Y, E100G, R101Y, Y102G, G103A, V106Y, L107F, V109Y", "VL": "not shown"}, "B18": {"name": "Trastuzumab HCDR3 variant ARYGTGTYYYFLH (Fab, V domains shown)", "VH": "B8 VH with W99Y, E100G, R101T, Y102G, G103T, V106Y, L107F, D108L, V109H", "VL": "not shown"}, "B19": {"name": "Trastuzumab HCDR3 variant ARYPGGGIYDFDP (Fab, V domains shown)", "VH": "B8 VH with W99Y, E100P, R101G, Y102G, Y104I, V106D, L107F, V109P", "VL": "not shown"}, "B20": {"name": "Trastuzumab HCDR3 variant ARYGDADFYAFDP (Fab, V domains shown)", "VH": "B8 VH with W99Y, E100G, R101D, Y102A, G103D, Y104F, V106A, L107F, V109P", "VL": "not shown"}, "B21": {"name": "Trastuzumab HCDR3 variant ARYGAYSSYYFGY (Fab, V domains shown)", "VH": "B1 VH with S99Y, Y100G, F101A, R102Y, F103S, T104S, G105Y, D106Y, F108G", "VL": "not shown"}, "B22": {"name": "Trastuzumab HCDR3 variant ARYPSGYYYYFDY (Fab, V domains shown)", "VH": "B8 VH with W99Y, E100P, R101S, Y102G, G103Y, V106Y, L107F, V109Y", "VL": "not shown"}, "B23": {"name": "Trastuzumab HCDR3 variant ARYVTANTYSYDP (Fab, V domains shown)", "VH": "B8 VH with W99Y, E100V, R101T, Y102A, G103N, Y104T, V106S, L107Y, V109P", "VL": "not shown"}, "B24": {"name": "Trastuzumab HCDR3 variant ARYIFGGPYYFDY (Fab, V domains shown)", "VH": "B1 VH with S99Y, Y100I, R102G, F103G, T104P, G105Y, D106Y, F108D", "VL": "not shown"}, "B25": {"name": "Trastuzumab HCDR3 variant ARWGGFGYYYFDY (Fab, V domains shown)", "VH": "B8 VH with E100G, R101G, Y102F, V106Y, L107F, V109Y", "VL": "not shown"}, "B26": {"name": "Trastuzumab HCDR3 variant ARYGGYGYYWFDY (Fab, V domains shown)", "VH": "B8 VH with W99Y, E100G, R101G, V106W, L107F, V109Y", "VL": "not shown"}, "B27": {"name": "Trastuzumab HCDR3 variant ARWGTYTYGYFDY (Fab, V domains shown)", "VH": "B8 VH with E100G, R101T, G103T, Y105G, V106Y, L107F, V109Y", "VL": "not shown"}}, "note": "Positions count from the first letter of the chain named. Several values for one entry are separate records, joined by “and”; a condition that tells them apart may be missing. Identical values can stand only once."}
{"biological_target": "human epidermal growth factor receptor 2 (HER2) extracellular domain (human, UniProt P04626 23-629)", "test": "SPR"}
{"binder": "B1", "Kd": "0.135 µM", "log(KD (M))": "-6.87 log(M)"}
{"binder": "B2", "Kd": "0.0581 µM", "log(KD (M))": "-7.24 log(M)"}
{"binder": "B3", "Kd": "0.0896 µM", "log(KD (M))": "-7.05 log(M)"}
{"binder": "B4", "Kd": "0.102 µM", "log(KD (M))": "-6.99 log(M)"}
{"binder": "B5", "Kd": "0.0718 µM", "log(KD (M))": "-7.14 log(M)"}
{"binder": "B6", "Kd": "0.0425 µM", "log(KD (M))": "-7.37 log(M)"}
{"binder": "B7", "Kd": "0.149 µM", "log(KD (M))": "-6.83 log(M)"}
{"binder": "B8", "Kd": "0.0279 µM", "log(KD (M))": "-7.55 log(M)"}
{"binder": "B9", "Kd": "0.0674 µM", "log(KD (M))": "-7.17 log(M)"}
{"binder": "B10", "Kd": "0.156 µM and 0.155 µM", "log(KD (M))": "-6.81 log(M)"}
{"binder": "B11", "Kd": "0.0333 µM", "log(KD (M))": "-7.48 log(M)"}
{"binder": "B12", "Kd": "0.112 µM", "log(KD (M))": "-6.95 log(M)"}
{"binder": "B13", "Kd": "0.0636 µM", "log(KD (M))": "-7.2 log(M)"}
{"binder": "B14", "Kd": "0.135 µM", "log(KD (M))": "-6.87 log(M)"}
{"binder": "B15", "Kd": "0.05 µM", "log(KD (M))": "-7.3 log(M)"}
{"binder": "B16", "Kd": "0.038 µM", "log(KD (M))": "-7.42 log(M)"}
{"binder": "B17", "Kd": "0.054 µM", "log(KD (M))": "-7.27 log(M)"}
{"binder": "B18", "Kd": "0.0423 µM", "log(KD (M))": "-7.37 log(M)"}
{"binder": "B19", "Kd": "0.0399 µM", "log(KD (M))": "-7.4 log(M)"}
{"binder": "B20", "Kd": "0.0358 µM", "log(KD (M))": "-7.45 log(M)"}
{"binder": "B21", "Kd": "0.028 µM", "log(KD (M))": "-7.55 log(M)"}
{"binder": "B22", "Kd": "0.0901 µM", "log(KD (M))": "-7.05 log(M)"}
{"binder": "B23", "Kd": "0.0836 µM and 0.0835 µM", "log(KD (M))": "-7.08 log(M)"}
{"binder": "B24", "Kd": "0.036 µM", "log(KD (M))": "-7.44 log(M)"}
{"binder": "B25", "Kd": "0.031 µM", "log(KD (M))": "-7.51 log(M)"}
{"binder": "B26", "Kd": "0.04 µM", "log(KD (M))": "-7.4 log(M)"}
{"binder": "B27", "Kd": "0.0881 µM", "log(KD (M))": "-7.05 log(M)"}
